Measurements from US10233249B2, “Antibodies and methods for treating estrogen receptor-associated diseases” (BEIJING SHENOGEN PHARMA GROUP LTD., priority 2013, dated 2019).
“Also recorded” adds a separate entry of the source.

Tests used:
[1] = tested on: MCF7 mammosphere formation; assay: Estradiol stimulated MCF7 mammosphere formation assay; format: cell-based, human
Protocol: The impact of antibody on the formation and growth of cells was evaluated by Estradiol stimulated MCF7 mammosphere formation assay.
MCF-7 (ATCC) maintained in DMEM medium containing 10% FBS (Gibco) have been passaged 2-3 times prior to assay and are 60% confluence. MCF-7 cells were washed with warm phenol red-free DMEM twice and then grew in phenol red-free DMEM with 2.5% charcoal stripped FBS (CFBS) for 48 hours. The cells were then trypsinized and passed through 40-μm filters to remove cell clumps, followed by stained with 7-AAD and 800 cells were plated into each well of ultra-low binding 24 well plates (Corning Inc.) in 800 μl mammosphere growth medium consisting of serum free DMEM-F12 (Gibco) supplemented with 5 μg/ml insulin, 0.4% bovine serum albumin (Sigma), B27 (Invitrogen), 20 ng/ml EGF and bFGF (BDBiosciences). For the evaluation of antibody activity, 1 nM estradiol in DMSO was added to each well to induce mammosphere formation after adding of antibodies.
MCF7 cells were grown in the presence of 1 nM estradiol and PBS, human IgG, mouse IgG2b, recombinant ER-α36 ligand binding domain Fc fusion protein, or SNGmB1. DMSO was used as negative control. After 72 hr treatment, the number of mammosphere in culture was counted. […]
The antibody activity was also evaluated in a longer term of 7 days by following methods: MCF7 mammosphere was prepared using same method described above. […]

[2] = molecular target: T1, ER-α36 (Homo sapiens, UniProt P03372, I452L); assay: ELISA binding specificity of SNGmB1; conditions: plate coated at 1 μg/ml, antibody 0.004-10 μg/ml
T1 construct: made in house; host or cells: E. coli BL21 (DE3)
T1 sequence (P03372 166-310 isoform P03372-4 I279L): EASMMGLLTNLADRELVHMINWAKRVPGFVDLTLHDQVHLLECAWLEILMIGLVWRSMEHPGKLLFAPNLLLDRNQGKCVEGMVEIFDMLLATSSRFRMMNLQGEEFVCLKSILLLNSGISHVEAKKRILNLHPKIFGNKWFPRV
Protocol: The binding specificity of SNGmB1 was assessed using ELISA assay. Five different proteins were used to coat the assay plate at 1 μg/ml. After extensive blocking, the SNGmB1 antibody of different concentrations (10, 2, 0.4, 0.08 and 0.016, 0.004 μg/ml) was added to the assay plate and incubated for 1.5 hours, followed by detection of complex formation using HRP (horse radish peroxidase) labeled anti-mouse IgG Fc (Invitrogen). An example of the data was shown below in FIG. 3. […] The key epitope residues in ER-α36 F domain for SNGmB1 binding have been mapped using both PepScan and Alanine Scan (see Example 5).

[3] = molecular target: T2, ER-α36 expressed on cell surfaces of K562 cells (Homo sapiens, UniProt P03372); assay: FACS analysis of binding to cell surface ER-α36; conditions: 100, 20, 4, 0.8, 0.16, 0.032 μg/ml; mouse IgG2b isotype control
T2 construct: endogenous in cells; host or cells: K562, MCF7, SKBR3, MHCC97H
T2 sequence (P03372 1-310 isoform P03372-4): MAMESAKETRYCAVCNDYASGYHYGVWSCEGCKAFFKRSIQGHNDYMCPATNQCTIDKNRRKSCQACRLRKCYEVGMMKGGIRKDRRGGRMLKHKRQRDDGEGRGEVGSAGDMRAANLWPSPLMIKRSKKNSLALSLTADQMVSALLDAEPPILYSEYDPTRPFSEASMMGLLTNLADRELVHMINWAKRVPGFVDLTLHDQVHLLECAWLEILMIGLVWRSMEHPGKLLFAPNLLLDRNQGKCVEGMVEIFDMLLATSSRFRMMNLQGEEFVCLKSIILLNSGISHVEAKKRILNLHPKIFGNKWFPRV
Protocol: Also examined were the binding of SNGmB1 to a series of human cancer cell lines including K-562 cell, a cell line derived from chronic myeloid leukemia patient; MCF7: a breast cancer cell line expressing both ER-α66 and ER-α36; SKBR3 (ATCC): a breast cancer cell line expressing high levels of HER2; and MHCC97H (ATCC): a highly metastatic hepatocellular carcinoma cell line.
These cell lines (K562, MCF7, SKBR3, MHCC97H) were cultured in their respective medium to 90% confluence and then the cells were washed with PBS, followed by pretreatment with 0.5 mM EDTA (adherent cell lines) to facilitate removal from substrate. The cells are then collected and centrifuged at 2500 rpm for 5 minutes at 4° C. After counting the cell number, the cells were then resuspended in the block buffer (10% normal goat serum, Invitrogen) to a final concentration of 5-10×10^6 cells/ml, and 100 μl of cells (5×10^5) were transferred to a 1.5 ml EP tube for staining. All those tubes (cells in block buffer) were then laid in a revolver (Grant) for 30 minutes at 4° C. After that the cells were centrifuged at 2500 rpm for 5 minutes at 4° C., the supernatant was discarded, 100 μl of the primary antibody was then added to (1-30 μg/ml final concentration, SNGmB1 or mouse IgG2b isotope control) and incubated in a revolver at 4° C. for 1 hr. The cells were then collected by centrifugation at 2500 rpm for 5 minutes at 4° C. and washed 2 times with PBS solution. The goat anti mouse IgG (H+L) FITC secondary antibody (Invitrogen) were then added at a dilution range of 1:400-800 followed by incubation in a revolver at 4° C. for 1 hr and kept in dark. Following this incubation, free antibody was the removed by washing the cells twice with PBS and the cells were then fixed in 1% paraformaldehyde at room temperature for 10 min and before resuspending the cells in 200-400 μl PBS with 5 μl 7-AAD (BD Biosciences) added for final flow cytometric analysis.
In FIG. 5A, the “Geom. Mean” refers to Geometric mean fluorescence intensity. […] The cell line was incubated with the SNGmB1 antibody and the binding was tested, according to the similar procedure described above. Mouse IgG2b was used as isotype control.

B1: SNGmB1: mouse monoclonal anti-ER-α36 antibody (mIgG2b), light chain SEQ ID NO: 16, heavy chain SEQ ID NO: 18 (antibody, listed as Mus musculus)
heavy: QAYLQQSGAELVRPGASVKMSCKASGYTFTSHNMHWIKQTPRQGLEWIGAIHPVNGDTAYNQKFKGKATLTVDKSSSTAYLQLSSLTSEESAVYFCAREGYGSVDYWGQGTTLTVSSAKTTPPSVYPLAPGCGDTTGSSVTLGCLVKGYFPESVTVTWNSGSLSSSVHTFPALLQSGLYTMSSSVTVPSSTWPSQTVTCSVAHPASSTTVDKKLEPSGPISTINPCPPCKECHKCPAPNLEGGPSVFIFPPNIKDVLMISLTPKVTCVVVDVSEDDPDVQISWFVNNVEVHTAQTQTHREDYNSTIRVVSTLPIQHQDWMSGKEFKCKVNNKDLPSPIERTISKIKGLVRAPQVYILPPPAEQLSRKDVSLTCLVVGFNPGDISVEWTSNGHTEENYKDTAPVLDSDGSYFIYSKLNMKTSKWEKTDSFSCNVRHEGLKNYYLKKTISRSPGK
light: ETTVTQSPASLSMTIGEKVTIRCITSTDIDDDMNWYRKKPGQPPKLLISEGNTLRPGVPSRFSSSGYGTDFVFTIENMLSEDVADYYCLQSDNLPLTFGAGTKLELKRADAAPTVSIFPPSSEQLTSGGASVVCFLNNFYPKDINVKWKIDGSERQNGVLNSWTDQDSKDSTYSMSSTLTLTKDEYERHNSYTCEATHKTSTSPIVKSFNRNEC
What does the source list for B1?
inhibition of estradiol stimulated MCF7 mammosphere formation ([1]; 1 nM estradiol, 72 hr treatment, compared with human IgG and mouse IgG2b): significantly inhibited; also recorded: can inhibit on MCF7 mammosphere formation and growth; inhibition of MCF7 mammosphere formation, longer term ([1]; 7 days, estradiol 100 μM or 3 nM, different antibody concentrations, compared with mIgG): better ability in inhibiting mammosphere formation compared with mIgG; also recorded: can inhibit on MCF7 mammosphere formation and growth at different concentrations; binding to Fc-LBD protein [2]: bind to; binding to K562 cells (FACS) [3]: dose-dependent binding
